Data from article PMC2879597 (Structure (London, England : 1993), 2010).

B1: sIL-10R2-NQ (soluble extracellular IL-10R2 chain with N49Q, N68Q, N102Q, N161Q) (receptor, human, UniProt Q08334 20-220, looked up)
chain: MVPPPENVRMNSVNFKNILQWESPAFAKGQLTFTAQYLSYRIFQDKCMQTTLTECDFSSLSKYGDHTLRVRAEFADEHSDWVQITFCPVDDTIIGPPGMQVEVLADSLHMRFLAPKIENEYETWTMKNVYNSWTYNVQYWKQGTDEKFQITPQYDFEVLRNLEPWTTYCVQVRGFLPDRNKAGEWSEPVCEQTTHDETVPS
B2: sIL-10R2 Y140A (on sIL-10R2-NQ) (receptor, human, UniProt Q08334 20-220, looked up)
chain: MVPPPENVRMNSVNFKNILQWESPAFAKGQLTFTAQYLSYRIFQDKCMQTTLTECDFSSLSKYGDHTLRVRAEFADEHSDWVQITFCPVDDTIIGPPGMQVEVLADSLHMRFLAPKIENEAETWTMKNVYNSWTYNVQYWKQGTDEKFQITPQYDFEVLRNLEPWTTYCVQVRGFLPDRNKAGEWSEPVCEQTTHDETVPS
B3: glycosylated sIL-10R2 (receptor, human, UniProt Q08334 20-220, looked up)
chain: MVPPPENVRMNSVNFKNILQWESPAFAKGNLTFTAQYLSYRIFQDKCMNTTLTECDFSSLSKYGDHTLRVRAEFADEHSDWVNITFCPVDDTIIGPPGMQVEVLADSLHMRFLAPKIENEYETWTMKNVYNSWTYNVQYWKNGTDEKFQITPQYDFEVLRNLEPWTTYCVQVRGFLPDRNKAGEWSEPVCEQTTHDETVPS
modifications: N-linked glycosylation sites N49, N68, N102 and N161 (glycosylated)
B4: sIL-10R2 Y173A (on sIL-10R2-NQ) (receptor, human, UniProt Q08334 20-220, looked up)
chain: MVPPPENVRMNSVNFKNILQWESPAFAKGQLTFTAQYLSYRIFQDKCMQTTLTECDFSSLSKYGDHTLRVRAEFADEHSDWVQITFCPVDDTIIGPPGMQVEVLADSLHMRFLAPKIENEYETWTMKNVYNSWTYNVQYWKQGTDEKFQITPQADFEVLRNLEPWTTYCVQVRGFLPDRNKAGEWSEPVCEQTTHDETVPS
B5: sIL-10R2 Y59A (on sIL-10R2-NQ) (receptor, human, UniProt Q08334 20-220, looked up)
chain: MVPPPENVRMNSVNFKNILQWESPAFAKGQLTFTAQYLSARIFQDKCMQTTLTECDFSSLSKYGDHTLRVRAEFADEHSDWVQITFCPVDDTIIGPPGMQVEVLADSLHMRFLAPKIENEYETWTMKNVYNSWTYNVQYWKQGTDEKFQITPQYDFEVLRNLEPWTTYCVQVRGFLPDRNKAGEWSEPVCEQTTHDETVPS
B6: sIL-10R2 Y56A (on sIL-10R2-NQ) (receptor, human, UniProt Q08334 20-220, looked up)
chain: MVPPPENVRMNSVNFKNILQWESPAFAKGQLTFTAQALSYRIFQDKCMQTTLTECDFSSLSKYGDHTLRVRAEFADEHSDWVQITFCPVDDTIIGPPGMQVEVLADSLHMRFLAPKIENEYETWTMKNVYNSWTYNVQYWKQGTDEKFQITPQYDFEVLRNLEPWTTYCVQVRGFLPDRNKAGEWSEPVCEQTTHDETVPS

Assays:
[1] = molecular target: T1, IL-22/sIL-22R1 binary complex (UniProt Q9GZX6 34-179; Q8N6P7 16-228)
T1 sequence (looked up) 1: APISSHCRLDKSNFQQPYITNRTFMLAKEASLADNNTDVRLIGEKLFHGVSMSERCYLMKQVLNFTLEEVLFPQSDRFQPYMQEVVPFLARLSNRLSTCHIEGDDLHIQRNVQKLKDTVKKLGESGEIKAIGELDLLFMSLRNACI
T1 sequence (looked up) 2: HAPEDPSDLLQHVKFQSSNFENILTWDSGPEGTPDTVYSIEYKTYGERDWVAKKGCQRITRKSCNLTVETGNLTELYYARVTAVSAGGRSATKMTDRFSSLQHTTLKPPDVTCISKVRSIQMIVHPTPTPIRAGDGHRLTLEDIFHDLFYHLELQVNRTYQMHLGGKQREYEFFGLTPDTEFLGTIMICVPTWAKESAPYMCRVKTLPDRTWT

[2] = molecular target: T2, cmvIL-10/sIL-10R1 binary complex (cytomegalovirus (CMV) | , UniProt P17150 20-175; Q13651 22-235); assay: SPR
T2 sequence 1: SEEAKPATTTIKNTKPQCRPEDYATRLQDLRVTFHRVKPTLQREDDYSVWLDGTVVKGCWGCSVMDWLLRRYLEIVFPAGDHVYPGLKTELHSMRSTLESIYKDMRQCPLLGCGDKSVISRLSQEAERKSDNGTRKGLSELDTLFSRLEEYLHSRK
T2 sequence 2: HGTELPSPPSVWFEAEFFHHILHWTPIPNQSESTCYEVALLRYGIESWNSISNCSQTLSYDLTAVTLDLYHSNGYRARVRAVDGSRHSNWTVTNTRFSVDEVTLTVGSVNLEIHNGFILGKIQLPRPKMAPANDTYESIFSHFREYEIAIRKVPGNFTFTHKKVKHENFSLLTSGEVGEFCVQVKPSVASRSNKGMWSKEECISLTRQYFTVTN

[3] = molecular target: hIL-10/sIL-10R1 binary complex (human | , UniProt P22301 19-178; Q13651 22-235); assay: SPR
[4] = molecular target: T1, IL-22/sIL-22R1 binary complex; assay: SPR

hIL-10/sIL-10R1 binary complex, sequence (P22301 19-178, one chain of several): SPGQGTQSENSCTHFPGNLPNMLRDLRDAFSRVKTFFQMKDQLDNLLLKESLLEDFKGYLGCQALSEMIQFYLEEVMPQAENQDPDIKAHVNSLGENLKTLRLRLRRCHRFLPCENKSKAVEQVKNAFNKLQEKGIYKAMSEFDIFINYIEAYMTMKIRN

| Binder | Kd [1] [µM] | percent of wild-type binding (normalized RU) [2] | percent of wild-type binding (normalized RU) [3] | percent of wild-type binding (normalized RU) [4] |
| --- | --- | --- | --- | --- |
| B1 | 14 | – | – | – |
| B2 | – | ~20 % of WT | ~20 % of WT | – |
| B3 | 7 | – | – | – |
| B4 | – | – | – | 65 % of WT |
| B5 | – | ~50 % of WT | ~50 % of WT | ~50 % of WT |
| B6 | – | ~20 % of WT | ~20 % of WT | – |
